Test system: Escherichia coli TOP10
Test: shrunken log2 fold change of peptide-encoding DNA abundance (4.5 h post-induction vs induction); higher = less antimicrobial activity (less host growth inhibition)
Details: time post-induction: 4.5 h; library: site-saturation at positions 5, 18, 19, 20
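Note: peptides expressed intracellularly from a pBAD plasmid library in pooled LB shake-flask culture, induced with 0.3% L-arabinose, DNA abundance read by NGS, three biological replicates, DESeq2 with apeglm shrinkage.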

Sequence	shrunken log2 fold change
RRIRARPPRLPRPRPRPERHPRP	0.58
RRIRCRPPRLPRPRPRPHIAPRP	-0.413
RRIRWRPPRLPRPRPRPPMAPRP	0.598
RRIRFRPPRLPRPRPRPEFQPRP	0.0542
RRIRPRPPRLPRPRPRPMQGPRP	-0.146
RRIRYRPPRLPRPRPRPVIKPRP	-0.585
RRIRRRPPRLPRPRPRPTFGPRP	0.337
RRIRQRPPRLPRPRPRPSSRPRP	-0.14
RRIRHRPPRLPRPRPRPDFCPRP	-0.0801
RRIRIRPPRLPRPRPRPMDQPRP	0.0178
RRIRRRPPRLPRPRPRPESTPRP	0.571
RRIRPRPPRLPRPRPRPEGFPRP	0.86
RRIRDRPPRLPRPRPRPWCRPRP	0.0772
RRIRMRPPRLPRPRPRPFLHPRP	-0.0137
RRIRARPPRLPRPRPRPVCCPRP	0.573
RRIRARPPRLPRPRPRPFYIPRP	-0.309
RRIRLRPPRLPRPRPRPLYIPRP	-0.932
RRIRFRPPRLPRPRPRPGYCPRP	-0.321
RRIRCRPPRLPRPRPRPSSDPRP	-0.162
RRIRKRPPRLPRPRPRPHIPPRP	-0.247
RRIRARPPRLPRPRPRPAQCPRP	0.469
RRIRHRPPRLPRPRPRPPNYPRP	-0.0558
RRIRERPPRLPRPRPRPPLPPRP	0.151
RRIRGRPPRLPRPRPRPEVTPRP	0.168
RRIRYRPPRLPRPRPRPYMSPRP	-0.00192

Sequence	shrunken log2 fold change
RRIRHRPPRLPRPRPRPSHMPRP	-0.856
RRIRRRPPRLPRPRPRPVGYPRP	0.02
RRIRMRPPRLPRPRPRPSGAPRP	1.13
RRIRMRPPRLPRPRPRPGLGPRP	0.914
RRIRHRPPRLPRPRPRPNKWPRP	-0.0964
RRIRQRPPRLPRPRPRPSQHPRP	-0.356
RRIRARPPRLPRPRPRPMGYPRP	0.0315
RRIRSRPPRLPRPRPRPEMTPRP	-0.0333
RRIRIRPPRLPRPRPRPTWKPRP	-0.0541
RRIRHRPPRLPRPRPRPTQDPRP	1.87
RRIRDRPPRLPRPRPRPKLDPRP	0.0966
RRIRTRPPRLPRPRPRPRELPRP	0.267
RRIRQRPPRLPRPRPRPHWDPRP	-0.224
RRIRNRPPRLPRPRPRPHGNPRP	-0.189
RRIRSRPPRLPRPRPRPKAPPRP	0.184
RRIRKRPPRLPRPRPRPLFDPRP	-0.0965
RRIRRRPPRLPRPRPRPTQMPRP	0.694
RRIRHRPPRLPRPRPRPMCKPRP	-0.151
RRIRMRPPRLPRPRPRPSSNPRP	-0.142
RRIRWRPPRLPRPRPRPTMYPRP	0.00431
RRIRSRPPRLPRPRPRPWPCPRP	0.134
RRIRIRPPRLPRPRPRPDFPPRP	0.058
RRIRNRPPRLPRPRPRPDKKPRP	-0.0263
RRIRHRPPRLPRPRPRPPRVPRP	0.356
RRIRVRPPRLPRPRPRPCVDPRP	-0.0658

Sequence	shrunken log2 fold change
RRIRHRPPRLPRPRPRPTHIPRP	-0.468
RRIRQRPPRLPRPRPRPSCFPRP	-0.529
RRIRYRPPRLPRPRPRPCCAPRP	-0.437
RRIRLRPPRLPRPRPRPVMMPRP	-0.288
RRIRLRPPRLPRPRPRPVRAPRP	0.687
RRIRFRPPRLPRPRPRPGALPRP	0.0277
RRIRHRPPRLPRPRPRPLSDPRP	-0.0615
RRIRWRPPRLPRPRPRPGEYPRP	0.147
RRIRGRPPRLPRPRPRPHNWPRP	0.18
RRIRLRPPRLPRPRPRPLADPRP	-0.0654
RRIRFRPPRLPRPRPRPKSFPRP	-0.0388
RRIRDRPPRLPRPRPRPCFWPRP	0.612
RRIRGRPPRLPRPRPRPQSIPRP	0.108
RRIRVRPPRLPRPRPRPWTNPRP	-0.584
RRIRHRPPRLPRPRPRPTIEPRP	-0.0518
RRIRARPPRLPRPRPRPFHWPRP	0.277
RRIRCRPPRLPRPRPRPAVCPRP	0.297
RRIRSRPPRLPRPRPRPCMSPRP	-0.348
RRIRYRPPRLPRPRPRPYWMPRP	-0.686
RRIRTRPPRLPRPRPRPLMQPRP	0.19
RRIRPRPPRLPRPRPRPWLDPRP	0.164
RRIRIRPPRLPRPRPRPQTTPRP	-0.38
RRIRERPPRLPRPRPRPAAYPRP	-0.0475
RRIRLRPPRLPRPRPRPTVWPRP	0.387
RRIRRRPPRLPRPRPRPDGRPRP	0.0193

Sequence	shrunken log2 fold change
RRIRVRPPRLPRPRPRPMYVPRP	3.48
RRIRHRPPRLPRPRPRPVGDPRP	-0.206
RRIRVRPPRLPRPRPRPNAEPRP	0.0611
RRIRKRPPRLPRPRPRPTKAPRP	0.647
RRIRIRPPRLPRPRPRPTPDPRP	-0.0173
RRIRDRPPRLPRPRPRPYTFPRP	-0.0443
RRIRPRPPRLPRPRPRPVDIPRP	-0.288
RRIRERPPRLPRPRPRPGFWPRP	0.407
RRIRYRPPRLPRPRPRPKHAPRP	-0.0577
RRIRARPPRLPRPRPRPVKNPRP	0.384
RRIRWRPPRLPRPRPRPITTPRP	0.0992
RRIRRRPPRLPRPRPRPDRVPRP	-0.203
RRIRMRPPRLPRPRPRPAWGPRP	0.81
RRIRPRPPRLPRPRPRPLYWPRP	-0.0211
RRIRARPPRLPRPRPRPACPPRP	0.255
RRIRTRPPRLPRPRPRPDAGPRP	0.11
RRIRGRPPRLPRPRPRPDGRPRP	0.169
RRIRDRPPRLPRPRPRPEQKPRP	0.0533
RRIRPRPPRLPRPRPRPEQMPRP	0.0974
RRIRMRPPRLPRPRPRPFANPRP	-0.0062
RRIRIRPPRLPRPRPRPILGPRP	-0.0266
RRIRERPPRLPRPRPRPCMLPRP	-0.241
RRIRRRPPRLPRPRPRPFNRPRP	-0.557
RRIRLRPPRLPRPRPRPMLLPRP	-0.56
RRIRHRPPRLPRPRPRPPFDPRP	-0.178

Sequence	shrunken log2 fold change
RRIRQRPPRLPRPRPRPQTLPRP	-0.319
RRIRMRPPRLPRPRPRPQCRPRP	0.253
RRIRSRPPRLPRPRPRPRFTPRP	-0.115
RRIRERPPRLPRPRPRPNNNPRP	-0.977
RRIRTRPPRLPRPRPRPWTNPRP	-0.148
RRIRWRPPRLPRPRPRPRQNPRP	0.448
RRIRHRPPRLPRPRPRPICPPRP	-0.144
RRIRPRPPRLPRPRPRPTLYPRP	0.221
RRIRLRPPRLPRPRPRPMCEPRP	-0.0027
RRIRSRPPRLPRPRPRPKDFPRP	0.0212
RRIRLRPPRLPRPRPRPYQYPRP	-0.151
RRIRHRPPRLPRPRPRPCAFPRP	-0.176
RRIRNRPPRLPRPRPRPRCSPRP	0.019
RRIRHRPPRLPRPRPRPHIMPRP	-0.63
RRIRDRPPRLPRPRPRPHENPRP	0.116
RRIRERPPRLPRPRPRPKSEPRP	0.196
RRIRSRPPRLPRPRPRPYYRPRP	-0.0115
RRIRGRPPRLPRPRPRPCYLPRP	-0.177
RRIRSRPPRLPRPRPRPYKAPRP	-0.0488
RRIRTRPPRLPRPRPRPFRRPRP	-0.0209
RRIRHRPPRLPRPRPRPRFNPRP	-0.316
RRIRVRPPRLPRPRPRPPVGPRP	0.375
RRIRERPPRLPRPRPRPAIAPRP	0.0488
RRIRTRPPRLPRPRPRPFSVPRP	0.0234
RRIRIRPPRLPRPRPRPIMKPRP	-0.227

Sequence	shrunken log2 fold change
RRIRHRPPRLPRPRPRPQRLPRP	0.00653
RRIRNRPPRLPRPRPRPRRTPRP	0.135
RRIRSRPPRLPRPRPRPWQQPRP	0.179
RRIRLRPPRLPRPRPRPQDEPRP	0.119
RRIRDRPPRLPRPRPRPTHPPRP	0.263
RRIRWRPPRLPRPRPRPTPFPRP	0.153
RRIRMRPPRLPRPRPRPTICPRP	0.0136
RRIRRRPPRLPRPRPRPAAMPRP	0.516
RRIRERPPRLPRPRPRPIPGPRP	-0.124
RRIRMRPPRLPRPRPRPKYFPRP	-0.186
RRIRDRPPRLPRPRPRPPIFPRP	-0.129
RRIRPRPPRLPRPRPRPLLMPRP	-0.185
RRIRIRPPRLPRPRPRPTKYPRP	-0.681
RRIRPRPPRLPRPRPRPQHHPRP	-0.302
RRIRWRPPRLPRPRPRPCGCPRP	-0.0615
RRIRHRPPRLPRPRPRPGRDPRP	0.135
RRIRQRPPRLPRPRPRPNTGPRP	-0.766
RRIRRRPPRLPRPRPRPYVDPRP	-0.102
RRIRYRPPRLPRPRPRPGSLPRP	-0.0848
RRIRCRPPRLPRPRPRPWNLPRP	-0.19
RRIRSRPPRLPRPRPRPQCWPRP	0.24
RRIRFRPPRLPRPRPRPEMQPRP	0.0943
RRIRTRPPRLPRPRPRPKSFPRP	0.0134
RRIRDRPPRLPRPRPRPSWKPRP	-0.015
RRIRCRPPRLPRPRPRPSIMPRP	-0.684
